Results published in patent EP4568683A2 (dated 2025).

Legend:
[1] = target: T1, human PSMA expressed on prostate cancer cell lines (22Rv1, C4-2B, PC3-PSMA) (human, UniProt Q04609 1-750); experiment: flow cytometry on PSMA-expressing 22Rv1 cells, PE anti-human IgG-Fc secondary, MFI
T1 construct: Endogenous PSMA on 22Rv1 and C4-2B cells; PC3 cells were engineered to express PSMA; also called prostate specific membrane antigen; FOLH1

[2] = target: T2, recombinant human PSMA protein (human, UniProt Q04609 44-750); experiment: ELISA, plates coated with 1 ug/mL recombinant human PSMA
T2 construct: On Blue native PAGE the protein appeared to be a mixture of dimer and monomer; also called recombinant human PSMA (Acro Biosciences / Acro Biosystems; printed 'Aero')
T2 sequence (Q04609 44-750 limits assumed): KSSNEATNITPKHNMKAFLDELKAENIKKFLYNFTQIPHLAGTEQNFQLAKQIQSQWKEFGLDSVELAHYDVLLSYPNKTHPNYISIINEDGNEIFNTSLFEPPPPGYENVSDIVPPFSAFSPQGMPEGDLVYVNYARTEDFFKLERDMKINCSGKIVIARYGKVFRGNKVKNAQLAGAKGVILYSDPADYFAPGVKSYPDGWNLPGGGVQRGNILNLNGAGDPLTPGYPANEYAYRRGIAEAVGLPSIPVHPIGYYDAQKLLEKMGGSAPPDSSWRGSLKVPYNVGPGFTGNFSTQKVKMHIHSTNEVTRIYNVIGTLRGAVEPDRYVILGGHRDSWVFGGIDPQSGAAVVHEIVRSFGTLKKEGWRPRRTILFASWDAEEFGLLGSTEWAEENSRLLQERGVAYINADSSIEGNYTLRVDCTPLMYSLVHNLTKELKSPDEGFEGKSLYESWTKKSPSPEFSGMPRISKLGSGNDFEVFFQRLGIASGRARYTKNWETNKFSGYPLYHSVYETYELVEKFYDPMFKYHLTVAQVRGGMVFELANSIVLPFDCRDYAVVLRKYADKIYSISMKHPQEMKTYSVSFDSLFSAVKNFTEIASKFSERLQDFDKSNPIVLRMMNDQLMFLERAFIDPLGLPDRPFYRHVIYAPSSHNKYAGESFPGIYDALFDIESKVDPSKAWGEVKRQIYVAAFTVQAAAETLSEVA

T1 sequence (Q04609 whole entry): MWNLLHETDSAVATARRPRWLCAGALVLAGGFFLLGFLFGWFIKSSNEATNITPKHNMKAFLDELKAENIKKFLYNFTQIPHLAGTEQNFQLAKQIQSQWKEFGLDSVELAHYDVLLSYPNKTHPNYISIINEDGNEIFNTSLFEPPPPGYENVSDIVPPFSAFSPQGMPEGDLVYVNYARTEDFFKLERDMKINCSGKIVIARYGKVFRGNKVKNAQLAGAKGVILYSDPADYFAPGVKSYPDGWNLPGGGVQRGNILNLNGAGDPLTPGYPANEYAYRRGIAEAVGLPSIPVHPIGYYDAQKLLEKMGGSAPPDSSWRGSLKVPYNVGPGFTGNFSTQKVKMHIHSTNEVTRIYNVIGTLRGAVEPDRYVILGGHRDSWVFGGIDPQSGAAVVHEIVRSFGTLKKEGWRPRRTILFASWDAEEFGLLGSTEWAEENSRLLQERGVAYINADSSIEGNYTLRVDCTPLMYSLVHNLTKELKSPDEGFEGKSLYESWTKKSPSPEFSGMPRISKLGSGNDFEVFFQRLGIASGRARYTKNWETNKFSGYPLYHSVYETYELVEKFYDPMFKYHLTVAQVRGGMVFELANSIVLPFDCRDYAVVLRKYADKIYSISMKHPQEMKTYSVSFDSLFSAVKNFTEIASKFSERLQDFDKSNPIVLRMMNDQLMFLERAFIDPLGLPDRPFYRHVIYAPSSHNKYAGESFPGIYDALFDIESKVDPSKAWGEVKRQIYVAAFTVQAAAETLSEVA

- binding result [1]: binds
- binding result [2]: binds
B1: benchmark antibody J591 (antibody, V domains shown)
VH: EVQLQQSGPELKKPGTSVRISCKTSGYTFTEYTIHWVKQSHGKSLEWIGNINPNNGGTTYNQKFEDKATLTVDKSSSTAYMELRSLTSEDSAVYYCAAGWNFDYWGQGTTLTVSS
VL: DIVMTQSHKFMSTSVGDRVSIICKASQDVGTAVDWYQQKPGQSPKLLIYWASTRHTGVPDRFTGSGSGTDFTLTITNVQSEDLADYFCQQYNSYPLTFGAGTMLDLK
notes: It was detected with anti-human IgG Fc secondary antibody; also called Benchmark (J591)
